# Results published in paper doi:10.1101/2022.05.30.493956 (bioRxiv, 2022).
# Positions count from the first letter of the chain named. In names and notes the source's numbering stands.
# B1: Full length human lamin A W514R (natural protein, UniProt P02545 1-664, looked up)
# chain: METPSQRRATRSGAQASSTPLSPTRITRLQEKEDLQELNDRLAVYIDRVRSLETENAGLRLRITESEEVVSREVSGIKAAYEAELGDARKTLDSVAKERARLQLELSKVREEFKELKARNTKKEGDLIAAQARLKDLEALLNSKEAALSTALSEKRTLEGELHDLRGQVAKLEAALGEAKKQLQDEMLRRVDAENRLQTMKEELDFQKNIYSEELRETKRRHETRLVEIDNGKQREFESRLADALQELRAQHEDQVEQYKKELEKTYSAKLDNARQSAERNSNLVGAAHEELQQSRIRIDSLSAQLSQLQKQLAAKEAKLRDLEDSLARERDTSRRLLAEKEREMAEMRARMQQQLDEYQELLDIKLALDMEIHAYRKLLEGEEERLRLSPSPTSQRSRGRASSHSSQTQGGGSVTKKRKLESTESRSSFSQHARTSGRVAVEEVDEEGKFVRLRNKSNEDQSMGNWQIKRQNGDDPLLTYRFPPKFTLKAGQVVTIWAAGAGATHSPPTDLVRKAQNTWGCGNSLRTALINSTGEEVAMRKLVRSVTVVEDDEDEDGDDLLHHHHGSHCSSSGDPAEYNLRSRTVLCGTCGQPADKASASGSGAQVGGPISSGSSASSVTVTRSYRSVGGSGGGSFGDNLVTRSYLLGNSSPRTQSPQNCSIM
# B2: Full length human lamin A protein/pre-lamin A (664 amino acids), wild type (natural protein, UniProt P02545 1-664, looked up)
# chain: B1 chain with R514W
# How the values were obtained:
# [1] = target: the molecule itself; test: far-UV circular dichroism
# [2] = target: the molecule itself; test: scanning electron microscopy of in vitro assembled purified protein
protein,measurement,setting,value
B1,binding result,[1],binds
B2,binding result,[2],binds
